Here are results for 1 molecule from patent US7063843 (OKLAHOMA MEDICAL RESEARCH FOUNDATION, dated 2006).

In assay [1] the target is T1, 125I-labeled activated protein C (human, UniProt P04070 43-197; P04070 212-461, radioiodinated with Na[125I] by Iodogen; positions not stated).
T1 construct: Specific activity 1x10^4 cpm/ng
Briefly: 125I-APC binding to HUVEC monolayers at 4 C, Scatchard analysis. As to the method: At the indicated times, cells were washed and bound radioactivity was measured. […] After washing, bound radioactivity was measured. […] Specific binding was determined as described below.
Monolayers of HUVEC in 24-well microplates (Costar) (1×10⁵ cells per well) were washed twice with EDTA/PBS and once with ice-cold HBSS. […] After washing three times with ice-cold HBSS, cells were released with the EDTA buffer, and the bound radioactivity was measured in a gamma counter (Isodata 500). To determine non-specific, calcium-independent adsorption of radioactivity, the cells were washed with EDTA/PBS and residual radioactivity in the cell pellet was measured. Non-specific binding of radioactivity was consistently less than 5% of the specific binding. The data was analyzed using the Enzfitter program (Elsevier Biosoft, Cambridge, U.K.).

The target of assay [2] is T2, human protein C (human, UniProt P04070 43-461).
T2 construct: also called PC
Briefly: summary statement; the direct measurement was 125I-APC on HUVEC, and protein C displaced F1-APC equivalently to APC.

T1 sequence (P04070 43-197, chain 1 of 2): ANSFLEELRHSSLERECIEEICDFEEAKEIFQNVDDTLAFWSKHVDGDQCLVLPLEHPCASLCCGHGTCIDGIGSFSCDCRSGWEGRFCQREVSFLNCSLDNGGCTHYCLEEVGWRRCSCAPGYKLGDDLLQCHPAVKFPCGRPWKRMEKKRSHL
T1 sequence (P04070 212-461, chain 2 of 2): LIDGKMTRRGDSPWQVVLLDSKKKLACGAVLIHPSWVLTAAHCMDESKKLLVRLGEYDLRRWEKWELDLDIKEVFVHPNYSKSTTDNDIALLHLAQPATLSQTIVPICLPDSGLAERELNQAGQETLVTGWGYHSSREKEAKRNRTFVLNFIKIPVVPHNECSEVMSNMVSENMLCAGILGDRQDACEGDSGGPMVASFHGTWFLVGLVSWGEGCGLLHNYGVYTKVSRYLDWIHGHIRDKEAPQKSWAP
T2 sequence (P04070 43-461): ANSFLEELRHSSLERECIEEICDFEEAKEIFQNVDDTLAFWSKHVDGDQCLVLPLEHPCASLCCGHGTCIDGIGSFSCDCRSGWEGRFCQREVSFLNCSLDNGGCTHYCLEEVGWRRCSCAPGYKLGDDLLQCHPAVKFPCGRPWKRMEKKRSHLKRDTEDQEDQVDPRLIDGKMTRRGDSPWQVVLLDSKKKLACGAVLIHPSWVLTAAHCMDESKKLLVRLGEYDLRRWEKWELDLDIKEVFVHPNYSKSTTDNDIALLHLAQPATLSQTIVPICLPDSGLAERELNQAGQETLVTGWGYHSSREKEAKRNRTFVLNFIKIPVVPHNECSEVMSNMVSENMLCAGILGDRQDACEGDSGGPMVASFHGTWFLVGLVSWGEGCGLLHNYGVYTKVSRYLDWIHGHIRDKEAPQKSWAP

B1: endothelial cell protein C/activated protein C receptor (EPCR), human (receptor)
chain: FCSQDASDGLQRLHMLQISYFRDPYHVWYQGNASLGGHLTHVLEGPDTNTTIIQLQPLQEPESWARTQSGLQSYLLQFHGLVRLVHQERTLAFPLTIRCFLGCELPPEGSRAHVFFEVAVNGSSFVSFRPERALWQADTQVTSGVVTFTLQQLNAYNRTRYELREFLEDTCVQYVQKHISAENTKGSQTSRSYTSLVLGVLVGGFIIAGVAVGIFLCTGGRRC
notes: also called EPCR-1 (clone)
Take B1: the Kd in assay [1] and in assay [2] was 30 nM in each case.
